Test: yeast display, Sf9 membrane polyspecificity reagent, FACS + sequencing; frameworks hold sequencing errors
Summary of the method: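 A nanobody's polyreactivity label depends on the gate it was sorted from. Yeast display cells were stained with 10% biotinylated, detergent-solubilized Sf9 membrane reagent for 1 hour at 4 °C, enriched on streptavidin microbeads and sorted by FACS. The low and high (top ~1%) gates were set on anti-HA fluorescence for expression and streptavidin fluorescence for reagent binding.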

| Sequence | polyreactivity (PSR sort gate) |
| --- | --- |
| QVQLVESGGGIVQAGGSLRLSCAASGSIFGINAMGWNRQAPGKERELVAAITSRGGRTYYADSVKGRFTISRDNAKNTVYLQMNSLKPEDTAVYYCAAATPYLIRYYYWGQGTQVTVSS | high polyreactivity |
| QVQLEVSGGVLVQPGGSIRLSCAASGFIFGFYAKGWYRQAPGKERELVASISGRGGRTSYADSVKGRFTISRDNAKNTVYLQMNSLKPEDTAVYYCNKAGYGVSRKYDYWGQGTQVNVSS | high polyreactivity |
| QVQLVESGGGLVQAGGSLRLSCAASGSTFSPYAMGWYRQAPGKERELVAGISRGTSTNYADSVKGRFTISRDNAKNTVYLQMNSLKPVDTAVYYCAARAYHRYLPGYRVRFGDYYYWGQGTQVTVSS | high polyreactivity |
| QVQLVESGGGLVQAGGSLRLSCAASGFTFAYYAMGWYRQAPGKERELVAAINWSGTRTSYADSVKGRFTISRDNAKNTVYLQMNSLKPEDSAVYYCAADSSLRYDYWGQGTQVTVSS | high polyreactivity |
| QVQLVESGGGLVQAGGSLRLSCAASGNIFWWNAMGWYRQAPGKERELVAAITSDSTTYYADSVKGRFTISRDNAKNTVYLQMNSLKPEDTAVYYCNTVAYLRRFDKWGMNYWGQGTQVTVSS | low polyreactivity |
| QVQLVESGGGLVQAGGSLRLSCAASGSTFIDYGMGWYRQAPGKERELVAAIDLDSGDTYYADSVKGRFTISRDNAKNTVYLQMNSLKPEDTAVYYCAAQYWYRYNYWGQGTQVTVSS | low polyreactivity |
| QVQLVESGGGLVQAGGSLRLSCAASARIFFTYVMGWYRQAHGKEREFVAAITFSDGTTYYADSVKGRFTISRDNAKNTVYLQMNSLKPEDTAVYYCNTDSFYGFVYPWTISSEVDYWGQGTQVTVSS | low polyreactivity |
| QVQLVESGGGLVQAGGSLRLSCAASGGIFRYYAMGWYRQAPGKERELVARISRRAGSTYYADSVKGRFTISRDNAKNTVYLQMNSLKPEDTAVYYCNKVGGTLGYDYWGQGTQVTVSS | high polyreactivity |
| QVQLVESGGGLVQAGGSLRLSCAASGSTFYGYAMGWYRQAPGKERELVAAITYSGGSTYYADSVKGRFTISRDNAKNTVYLQMNSLKPEDTAVYYCAATWLWFRRYRYDYWGQGTQVTVSS | high polyreactivity |
| QVQLVESGGGLVQAGGSLRLSCAASGRIFDVNAMGWYRQAPGKERELVAAINKSGGTTYYADSVKGRFTISRDNAKNTVYLQMYSLKPEDTAVYYCAADSYSSRYDYWGQGTQVTVSS | high polyreactivity |
| QVQLVESGGGLVQAGGSLRLSCAASGLIFVAYAMGWYRQAPGKERELVAAISRSGGSTYYADSVKGRFTISRDNAKNTVYLQMNRLKPEDTAVYFCAKYYGARHVDDDYWGQGTQVTVSS | high polyreactivity |
| QEQLQESGGGQVQAGGSLLLSCAASGNIIRYYYMGWYRQAPGKERELVAAITYGTSTNYADSVKGRFTISRDNAKNTVYLQMNSLKPEDTAVYYFAVDVNYGDPLDNWGQGTQVTVSC | high polyreactivity |
| QVQLVESGVGLVQAGGSLRLSCAASGFIFYGYAMGWYRQAPGKERELVAGNSTGGSTNYADSVKGRFTISRENAKNTVYLQMNSMKPEDTAVYDGAVVDVEQHVGHWGQVTQVTVSS | low polyreactivity |
| QVQLVESGGGLVQAGGSLRLSCAASGSTYSTNAMGWYRQAPGKERELVAAISRSGGSTYYADTVKRRFTISRDNAKITVYLQMNRLKPEDTAVYYCARYSFRGTNVRYDYWGQGTQVTVSS | high polyreactivity |
| QVQLVESGGGLVQAGGSLRLSCAASGRIFRYNAMGWYRQAPGKERELVAAISSVGSTNYADSVKGRFTISRDNAKNTVYLQMNSLKPEDTAVYYCNAVVRSYVKTYRYYKVDYWGQGTQVTVSS | high polyreactivity |
| QVQLVESGGGLVQAGGSLRLSCAASGFTSGYYAMGWYRQAPGKERELVAAISFSGDDTYYADSVKGRFTISRDNAKNTVYLQMNCLKPEVTAVYYCAAEYDLYFLDQGYWYVAFDYWGQGTQVTVSS | high polyreactivity |

| Sequence | polyreactivity (PSR sort gate) |
| --- | --- |
| QVQLVESGGGLVQAGGSLRLSCAASGFIFVTYAMGWYRQAPGKERELVAAITNSGGTTYYADSVKGRFTISRDNAKNTVYLQMNSLKPEDTAVYYCNKPYGAETAHREFDYWGQGTQVTVSS | low polyreactivity |
| QVQLVESGGGLVQAGGSLRLSCAASGRTFRSNAMGWYRQAPGKERELVAAIRNSDGSTNYADSVKGRFTISRDNAKNTVYLQMNSLKPEDTAVYYCAASSTVGRITRILYYYWGQGTQVTVSS | high polyreactivity |
| QVQLVESGGGLVQAVGSLRLSCAASGSTTFYAMGSYRQAPRKEWELVATISSSAGSTYYADSVKGRFTISRDNAKNTVFFQMNSLKPEDTAVFYCNAADAVSDYPDFHIYDYWGQGTQVTVSS | low polyreactivity |
| QVQLVESGGGLVQAGGSLRLSCAASGRTFKTYAMAWYRQAPGKERELVAAISRDGRTYYADSVKGRFTISRDNAKNTVYLQMNSLKPEDTAVYYCNKRSYRNGDYWGQGTQVTVSS | low polyreactivity |
| QVQLVESGGGLVQAGGSLRLSCAASGRTFRPYAMGLYRQEPGKERELVAAITSGGSTYYADSVKGRLTFSRDNAKYTVYLQMNSLKTEDTAVYYCNAKYYYQPPYDYWVQGTQVTVSS | low polyreactivity |
| QVQLVESGGGLVQAGGSLRLSCAASGSTFPDYVMGRYRQAPGKERELVAAFSSIGGSTYYADSVKGRFTISRDNAKNTVYLQMNCLKPEDTAVYYCAAENSYFYPFDYWGQGTQVTVSS | low polyreactivity |
| QVQLVESGGGLVQAGGSLRLSCAASGRIFYPNAKGWYIQAPGKETELVAVIRSRGGSTYYADSVKGRFTISRDNAKNTVYLQMNSLKPEDTAVYYCAARWVGRRTKYDYWGQGTQVTVSS | high polyreactivity |
| QVQLVESGGGLVQALGSLRLSCAASGSIFQRNALGWYRLAPGKERELVAAISRSGGSTYYADSVKGRFTISRDNAKNTVYCQMNSLQPEDTAVYYCAAVHFFWGYDYWGQGTQVTVSS | high polyreactivity |
| QVQLVESGGGLVQAGGSLRLSCAASGSTSNVYAMGWYRQAPGKERELVAAIRWSGGNTYYADSVKGRFTISRDNAKNTFYLQMNSLKPEDTAVYYCAAFYRYVSTIFDYWGQGTQVTVSS | high polyreactivity |
| QVQLVESGGGLVQAGGSLCLSGAASGITFRFYAMGWYRQAPGKERELVAAISWSGGRTYYADSVKWRFTISRDNAKNTVYLQMNSLKPEDTAVYYCAAVASSVPGYDYWGQGTQVTVSS | low polyreactivity |
| QVQLVESGGGLVQAGGSLRLSCAASGRTFTNNAMGWYRQAPGKERELVAAIRWSGGYTYYADSVKGRFTISRDNAKNTVYLQMNSQKPEDTAVYYCAKGYGYVEAVIVQYDYWGQGSQVTVSS | low polyreactivity |
| QVQLVESGGGLVQAGGSLRLSCAASGSTFRRNAMGWYRQAPGKERELVARISYRGGSTYYADSVKGRFTISRDNAKNTVYLQMNSLKPEDTAVYYCAARVYGVPEYDYWGQGTQVTVSS | low polyreactivity |
| QVQLVESGGGLVQAGGSLRLRCAASGRIFPLYAMGWYRQAPGKERELVATISYSGSSTYYADSVKGRFTISRDYAKNSVYLQMNSLKPEDTAVFYFNADAFGPPGVEYYYRGQGTQVTVSS | low polyreactivity |
| QVQLVESGGGLVQAGGSLRLSCAASGRIFNAYAIGWYRQAPGKERELVAAITVSGTRTYYADSVKGRFTISRDNAKNTVYLQMNSLKPEDTAVYYCAADIYHQPRYKYYYWGQGTQVTVSS | high polyreactivity |
| QVQLVESGGGLVQAGGSLRLSCAASGRILSYYAMGWYRQAPGKERELVATISASGGSTFYADSVKGRFTISRDNAKNTVYLQMNSLKPEDTAVYYCNAYWGRRVQRDYWGQGTQVTVSS | high polyreactivity |
| QVRLVESGGGLVQAGGSLRLSCAASGSTFKTYAMGWYRQAPGIERELVAAISAGGGSTYYADSVKGRFTISRDNAKNTVYLQMNSLKPEDTAVYYCAAAYIYAGWDYEYGGQGTQVTVSS | low polyreactivity |
